Like-named read-outs stand apart in the source and are kept apart here.
Tests used:
[1] = biological target: T1, human BAFF (10056-HNCH, Sino biological) (human, UniProt Q9Y275 134-285); test: competition ELISA: biotin-labeled BAFF to coated BAFF-R
T1 construct: Bought protein
Experimental: (§1) The blocking activity of the antibodies and the fusion proteins for receptors and ligands such as BAFF/BAFF-R, BAFF/BCMA, BAFF/TACI, APRIL/BCMA, APRIL/TACI, and p40/IL-12R1 was assayed by the ELISA method. The specific procedures were as follows:
(§2) A receptor protein was diluted to 2 μg/mL with PBS at pH 7.4 (BasalMedia, B320) and added to a 96-well microplate (Corning, 3590) at 100 μL/well. The plate was incubated at 4° C. overnight. After the liquid was discarded, 200 μL of 1% Casein blocking solution (Thermo, 37528) was added to each well for blocking, and the plate was incubated at 37° C. for 2 h. After the blocking was completed, the blocking solution was discarded, and the plate was washed 3 times with a PBST buffer (PBS at pH 7.4 containing 0.1% tween-20) for later use. A biotin-labeled ligand protein at a fixed concentration was mixed with the antibody or fusion protein diluted in gradient, pre-incubated at 37° C. for 30 min, and added to a blocked microplate. The plate was incubated at 37° C. for 1.5 h. After the incubation was completed, the plate was washed 3 times with PBST. 100 μL of streptavidin-HRP (Invitrogen, 434323, diluted at a ratio of 1:4000) was added to each well, and the plate was incubated at 37° C. for 1 h. The supernatant was removed, and the plate was washed 3 times with PBST. 100 μL of TMB chromogenic substrate (KPL, 5120-0077) was added to each well, and the plate was incubated at room temperature for 10-15 min. The reaction was stopped by adding 50 μL of 1 M H₂SO₄ to each well. The plate was read for absorbance values at 450 nm on a microplate reader, the curves for the inhibition of the binding of the ligands to the receptors were fitted with software, and the IC₅₀ values were calculated.

[2] = biological target: T1, human BAFF (10056-HNCH, Sino biological); test: ELISA, BAFF coated, fusion protein titrated
Experimental: (§3) The binding activity of the antibodies or fusion proteins for BAFF, APRIL, and IL-12/23 p40 was assayed by the ELISA method (coating an antigen protein). The specific procedures were as follows:
(§4) A BAFF (Sino biological, 10056-HNCH), APRIL (R&D Systems, 5860-AP-010/CF), or IL-12/23 p40 (Sino biological, 10052-H08H) protein was diluted to 1 μg/mL with a PBS (BasalMedia, B320) buffer at pH 7.4, and added to a 96-well microplate (Corning, 3590) at 100 μL/well. The plate was incubated at 4° C. overnight. After the liquid was discarded, 300 μL of 5% skim milk (BD, 232100) diluted with PBS was added to each well for blocking, and the plate was incubated at 37° C. for 2 h. After the blocking was completed, the blocking solution was discarded, and the plate was washed 3 times with a PBST buffer (PBS at pH 7.4 containing 0.1% tween-20). 100 μL of test antibody or fusion protein solution diluted in a gradient was added to each well, and the plate was incubated at 37° C. for 1 h. After the incubation was completed, the plate was washed 3 times with PBST. […] The plate was washed 3 times with PBST. 100 μL of TMB chromogenic substrate (KPL, 5120-0077) was added to each well, and the plate was incubated at room temperature for 10-15 min. The reaction was stopped by adding 50 μL of 1 M H₂SO₄ to each well. The plate was read for absorbance values at 450 nm on a microplate reader, the binding curves of the antibodies to an antigen were fitted with software, and the EC₅₀ values were calculated.

[3] = biological target: T2, BAFF (ACROBiosystems, BAF-H5248) (UniProt Q9Y275 134-285); test: ELISA, fusion protein coated, BAFF titrated, Anti-His-HRP
T2 construct: Bought protein used in the ELISA with coated test sample
Experimental: The binding activity of the TACI fusion proteins for BAFF and APRIL was assayed by the ELISA method (coating a test fusion protein sample). The specific procedures were as follows:
The test sample was diluted to 2 μg/mL with a PBS (BasalMedia, B320) buffer at pH 7.4 and added to a 96-well microplate (Corning, 3590) at 100 μL/well. The plate was incubated at 4° C. overnight. After the liquid was discarded, 300 μL of 5% skim milk (BD, 232100) diluted with PBS was added to each well for blocking, and the plate was incubated at 37° C. for 2 h. After the blocking was completed, the blocking solution was discarded, and the plate was washed 3 times with a PBST buffer (PBS at pH 7.4 containing 0.1% tween-20). 100 μL of BAFF (ACROBiosystems, BAF-H5248) or APRIL (R&D Systems, 5860-AP-010/CF) diluted in a gradient was added to each well, and the plate was incubated at 37° C. for 1 h. After the incubation, the plate was washed 3 times with PBST. When detecting the binding to BAFF, 100 μL of Anti-His-HRP (Sino biological, 105327-MM02T-H, diluted at a ratio of 1:2000) was added to each well; when detecting the binding to APRIL, 100 μL of anti-HA-HRP (Abcam, ab1190, diluted at a ratio of 1:4000) was added to each well. The plate was incubated at 37° C. for 1 h. The plate was washed 3 times with PBST. 100 μL of TMB chromogenic substrate (KPL, 5120-0077) was added to each well, and the plate was incubated at room temperature for 10-15 min. The reaction was stopped by adding 50 μL of 1 M H₂SO₄ to each well. The plate was read for absorbance values at 450 nm on a microplate reader, the binding curves of the antibodies to an antigen were fitted with software, and the EC₅₀ values were calculated.

[4] = biological target: T1, human BAFF (10056-HNCH, Sino biological); test: competition ELISA: biotin-labeled BAFF to coated BAFF-R; remark: listed apart in the source
Experimental: as §1, §2

[5] = biological target: T1, human BAFF (10056-HNCH, Sino biological); test: SPR (Biacore), sample captured on Protein A, antigen flowed, 1:1 fit
[6] = biological target: T1, human BAFF (10056-HNCH, Sino biological); test: ELISA, BAFF coated, fusion protein titrated; remark: listed apart in the source
Experimental: as §3, §4

[7] = biological target: T3, human APRIL (5860-AP-010/CF, R&D Systems) (human, UniProt O75888 115-250, limits assumed); test: SPR (Biacore), sample captured on Protein A, antigen flowed, 1:1 fit
T3 construct: Bought protein
T3 sequence (looked up): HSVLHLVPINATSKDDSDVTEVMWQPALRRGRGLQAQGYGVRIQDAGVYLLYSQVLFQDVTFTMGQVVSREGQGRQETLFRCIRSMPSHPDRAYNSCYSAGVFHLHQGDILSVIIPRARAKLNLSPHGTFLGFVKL
Experimental: A certain amount of test sample was subjected to affinity capture by a biosensor chip Protein A (GE, 29127556), then antigens at a series of concentration gradients were allowed to flow on the surface of the chip. The reaction signals were detected in real time by using Biacore (GE, 8K) to obtain association and dissociation curves. After the dissociation was completed for each cycle, the biochip was washed and regenerated with a 10 mM glycine-hydrochloric acid solution at pH 1.5 (GE, BR-1003-54). The experimental data were fitted using BIAevaluation version 4.1, GE software with a 1:1 model to obtain affinity values. The related antigen proteins used in this assay are as follows: human IL-23 (CT048-H08H, Sino biological), human IL-12 (CT050-H08H, Sino biological), human BAFF (10056-HNCH, Sino biological), human APRIL (5860-AP-010/CF, R&D Systems), cynomolgus monkey p40 (10215-CL, R&D Systems), cynomolgus monkey BAFF (BAF-CM412B, Kactus), cynomolgus monkey APRIL (APR-CM410B, Kactus), mouse BAFF (BAF-M521y, Acro Biosystems), and mouse APRIL (7907-AP/CF, R&D Systems).

[8] = biological target: T1, human BAFF (10056-HNCH, Sino biological); test: competition ELISA: biotin-labeled BAFF to coated BAFF-R; remark: listed apart in the source
Experimental: as §1, §2

Binder | IC50 [1] [nM] | EC50 [2] [nM] | further results
TACI-12 Fc (Fc fusion, TACI-9 truncated at the C-terminus by 3 amino acids NKL, fused directly to Fc; two identical polypeptides) SLSCRKEQGKFYDHLLRDCISCASICGQHPKQCAYFCEDKTHTCPPCPAPEAEGAPSVFLFPPKPKDTLMISRTPEVTCVVVDVSHEDPEVKFNWYVDGVEVHNAKTKPREEQYNSTYRVVSVLTVLHQDWLNGKEYKCKVSNKALPSSIEKTISKAKGQPREPQVYTLPPSRDELTKNQVSLTCLVKGFYPSDIAVEWESNGQPENNYKTTPPVLDSDGSFFLYSKLTVDKSRWQQGNVFSCSVMHEALHNHYTQKSLSLSPGK | 3.86 | 0.894 | –
TACI-9-15Fc5 fusion protein (Fc fusion, Full-length chain) STSCREEQGEFYDHLLRDCISCASICGQHPKQCAAFCEDKTHTCPPCPAPEAEGAPSVFLFPPKPKDTLMISRTPEVTCVVVDVSHEDPEVKFNWYVDGVEVHNAKTKPREEQYNSTYRVVSVLTVLHQDWLNGKEYKCKVSNKALPSSIEKTISKAKGQPREPQVYTLPPSRDELTKNQVSLTCLVKGFYPSDIAVEWESNGQPENNYKTTPPVLDSDGSFFLYSKLTVDKSRWQQGNVFSCSVMHEALHNHYTQKSLSLSPGK | – | – | EC50 [3]: 8.89 nM; IC50 [4]: 1.44 nM
TACI-13 Fc (Fc fusion, Fused directly to Fc; two identical polypeptides) SLSCRKEQGKFYDHLLRDCISCASICGQHPKQCAYFCDKTHTCPPCPAPEAEGAPSVFLFPPKPKDTLMISRTPEVTCVVVDVSHEDPEVKFNWYVDGVEVHNAKTKPREEQYNSTYRVVSVLTVLHQDWLNGKEYKCKVSNKALPSSIEKTISKAKGQPREPQVYTLPPSRDELTKNQVSLTCLVKGFYPSDIAVEWESNGQPENNYKTTPPVLDSDGSFFLYSKLTVDKSRWQQGNVFSCSVMHEALHNHYTQKSLSLSPGK | 30.1 | 3.66 | –
TACI-14 Fc (Fc fusion, Fused directly to Fc; two identical polypeptides) SLSCRKEQGKFYDHLLRDCISCASICGQHPKQCAYFDKTHTCPPCPAPEAEGAPSVFLFPPKPKDTLMISRTPEVTCVVVDVSHEDPEVKFNWYVDGVEVHNAKTKPREEQYNSTYRVVSVLTVLHQDWLNGKEYKCKVSNKALPSSIEKTISKAKGQPREPQVYTLPPSRDELTKNQVSLTCLVKGFYPSDIAVEWESNGQPENNYKTTPPVLDSDGSFFLYSKLTVDKSRWQQGNVFSCSVMHEALHNHYTQKSLSLSPGK | 780 | 64.2 | –
TACI-11 Fc (Fc fusion, TACI-9 truncated at the C-terminus by 2 amino acids KL, fused directly to Fc; two identical polypeptides) SLSCRKEQGKFYDHLLRDCISCASICGQHPKQCAYFCENDKTHTCPPCPAPEAEGAPSVFLFPPKPKDTLMISRTPEVTCVVVDVSHEDPEVKFNWYVDGVEVHNAKTKPREEQYNSTYRVVSVLTVLHQDWLNGKEYKCKVSNKALPSSIEKTISKAKGQPREPQVYTLPPSRDELTKNQVSLTCLVKGFYPSDIAVEWESNGQPENNYKTTPPVLDSDGSFFLYSKLTVDKSRWQQGNVFSCSVMHEALHNHYTQKSLSLSPGK | 2.62 | 0.584 | –
TACI-10 Fc (Fc fusion, TACI-9 truncated at the C-terminus by 1 amino acid L, fused directly to Fc; two identical polypeptides) SLSCRKEQGKFYDHLLRDCISCASICGQHPKQCAYFCENKDKTHTCPPCPAPEAEGAPSVFLFPPKPKDTLMISRTPEVTCVVVDVSHEDPEVKFNWYVDGVEVHNAKTKPREEQYNSTYRVVSVLTVLHQDWLNGKEYKCKVSNKALPSSIEKTISKAKGQPREPQVYTLPPSRDELTKNQVSLTCLVKGFYPSDIAVEWESNGQPENNYKTTPPVLDSDGSFFLYSKLTVDKSRWQQGNVFSCSVMHEALHNHYTQKSLSLSPGK | 2.7 | 0.561 | –
TACI-9 Fc (Fc fusion, TACI positions 68-108, no mutation, fused directly to Fc; two identical polypeptides) SLSCRKEQGKFYDHLLRDCISCASICGQHPKQCAYFCENKLDKTHTCPPCPAPEAEGAPSVFLFPPKPKDTLMISRTPEVTCVVVDVSHEDPEVKFNWYVDGVEVHNAKTKPREEQYNSTYRVVSVLTVLHQDWLNGKEYKCKVSNKALPSSIEKTISKAKGQPREPQVYTLPPSRDELTKNQVSLTCLVKGFYPSDIAVEWESNGQPENNYKTTPPVLDSDGSFFLYSKLTVDKSRWQQGNVFSCSVMHEALHNHYTQKSLSLSPGK | 2.09 | 0.49 | Kd [5]: 0.0748 nM; koff [5]: 1.62e-05 s⁻¹; kon [5]: 217000 M⁻¹ s⁻¹; EC50 [6]: 0.418 nM; Kd [7]: 0.018 nM; koff [7]: 0.000207 s⁻¹; kon [7]: 1.15e+07 M⁻¹ s⁻¹; IC50 [8]: 5.02 nM
